Data on two substances can be found in patent US20140161803A1, “CONSTITUTIVELY ACTIVE UPAR VARIANTS AND THEIR USE FOR THE GENERATION AND ISOLATION OF INHIBITORY ANTIBODIES” (IFOM Fondazione Istituo FIRC di Oncologia Molecolare, priority 2011, published 2014).

The target of the assay is wild-type human uPAR (human) (UniProt Q03405). Nature of the assay: cell-based or functional assay.
wild-type human uPAR (human), sequence (Q03405 23-305): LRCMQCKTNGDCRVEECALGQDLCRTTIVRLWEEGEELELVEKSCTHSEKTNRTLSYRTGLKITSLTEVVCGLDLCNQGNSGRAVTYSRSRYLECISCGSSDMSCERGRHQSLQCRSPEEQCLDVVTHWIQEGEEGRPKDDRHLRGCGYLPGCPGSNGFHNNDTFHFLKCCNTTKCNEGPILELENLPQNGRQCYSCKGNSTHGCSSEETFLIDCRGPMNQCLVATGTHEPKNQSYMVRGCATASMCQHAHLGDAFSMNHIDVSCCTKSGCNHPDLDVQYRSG

On to R2 (antibody), for which the % max inhibition (pro-uPA pre-treat.) amounted to 21% and the % max inhibition (veh. pre-treat.) stood at 65%.
As for “Somatomedin B domain of VN (from UniProt P04004 20-63) (ligand)”, the % max inhibition (pro-uPA pre-treat.) was 100%, the % max inhibition (veh. pre-treat.) came out at 100% and the IC50 (pro-uPA pre-treat.) is 0.8 µM.
